Measured values reported in publication PMC6331917.

System: NS5BΔ21 (viral RNA-dependent RNA polymerase) (Hepatitis C virus)
Assay: competition (filter binding)
Conditions: 5 mM HEPES pH 7.9, 2 mM MgCl2, 25 mM KCl, 37 °C, 30 min; nitrocellulose dot-blot filter binding. Aptamer:CRE Kd values (Table 2) are RNA-RNA and not listed.

HCV-CRE194
binding signal: 75.4 % complex
